Measurements published in patent US20250270343A1 (Alector, published 2025).

T1: soluble human GPNMB-Fc polypeptide (human, UniProt Q14956 23-498, limits assumed)
T1 construct: also called huGPNMB-Fc; not shown: Fc domain
T1 sequence (looked up): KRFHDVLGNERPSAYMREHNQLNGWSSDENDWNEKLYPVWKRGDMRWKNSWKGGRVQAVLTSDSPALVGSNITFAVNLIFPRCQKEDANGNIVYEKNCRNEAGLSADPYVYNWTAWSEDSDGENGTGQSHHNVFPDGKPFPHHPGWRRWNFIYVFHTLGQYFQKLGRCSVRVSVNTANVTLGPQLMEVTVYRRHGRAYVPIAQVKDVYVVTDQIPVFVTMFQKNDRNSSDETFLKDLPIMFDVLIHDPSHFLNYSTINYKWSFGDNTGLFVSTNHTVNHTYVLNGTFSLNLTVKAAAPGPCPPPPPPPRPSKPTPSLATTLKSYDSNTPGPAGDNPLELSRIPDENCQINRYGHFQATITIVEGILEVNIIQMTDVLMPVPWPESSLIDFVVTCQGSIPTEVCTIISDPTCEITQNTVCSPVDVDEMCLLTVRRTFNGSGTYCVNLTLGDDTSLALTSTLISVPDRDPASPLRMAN

B1: soluble mouse GPNMB-Fc polypeptide (Fc of human IgG1 or mouse IgG2A, not specified for the assay) (Fc fusion, UniProt Q99P91 23-502, looked up)
chain: KRFRDVLGHEQYPDHMREHNQLRGWSSDENEWDEHLYPVWRRGDGRWKDSWEGGRVQAVLTSDSPALVGSNITFVVNLVFPRCQKEDANGNIVYEKNCRNDLGLTSDLHVYNWTAGADDGDWEDGTSRSQHLRFPDRRPFPRPHGWKKWSFVYVFHTLGQYFQKLGRCSARVSINTVNLTAGPQVMEVTVFRRYGRAYIPISKVKDVYVITDQIPVFVTMSQKNDRNLSDEIFLRDLPIVFDVLIHDPSHFLNDSAISYKWNFGDNTGLFVSNNHTLNHTYVLNGTFNLNLTVQTAVPGPCPPPSPSTPPPPSTPPSPPPSPLPTLSTPSPSLMPTGYKSMELSDISNENCRINRYGYFRATITIVEGILEVSIMQIADVPMPTPQPANSLMDFTVTCKGATPMEACTIISDPTCQIAQNRVCSPVAVDGLCLLSVRRAFNGSGTYCVNFTLGDDASLALTSTLISIPGKDPDSPLRAVN
notes: extracellular domain; also called moGPNMB-Fc; mGPNMB; not shown: Fc region of human IgG1 or mouse IgG2A; in the Fab2 assay detected with anti-human IgG1 secondary antibody

Assays:
[1] = target: T2, unidentified GPNMB ligand(s) on the surface of NHLF cells; assay: flow cytometry, titration of soluble moGPNMB-Fc on normal human lung fibroblasts; MFI-APC against concentration (ug/mL)
T2 construct: written like m62, for NHLF cells; also called Normal Human Lung Fibroblast Cells
Description: The extracellular domain of GPNMB protein contains putative protein- or carbohydrate-binding domains capable of recognizing various ligands on the cell surface. […] Soluble mouse GPNMB-Fc polypeptide, consisting of the extracellular domain of mouse GPNMB and an Fc region of human IgG1 or mouse IgG2A (R&D System) (moGPNMB or mGPNMB) was used to confirm the binding activity of GPNMB towards different cell lines. Binding properties of soluble moGPNMB-Fc were examined by flow cytometry. Different cell lines (mouse SVEC4-10 cells, normal human lung fibroblasts (NHLF), mouse astrocytes, and human astrocytes were nonenzymatically harvested, plated at 100,000 cells/well, and incubated with increasing concentrations moGPNMB-Fc or control human IgG1 or control mouse IgG2A, in binding buffer (Hanks' balanced salt solution containing 1.3 mM CaCl₂, 0.8 mM MgSO₄, 3% fetal calf serum, and 10 mM HEPES) for 30 min on ice.
[…] Binding of soluble moGPNMB-Fc to cells was examined by FACSCanto (Becton Dickinson, San Jose, CA). In some experiments, the binding was performed in the presence of known GPNMB binding inhibitors (heparin, dextran sulfate, all purchased from Sigma).

[2] = target: T1, soluble human GPNMB-Fc polypeptide; assay: FACS, Fab2 enhancing huGPNMB-Fc binding to SVEC4-10 cells
Protocol: (§1) Purified recombinant Fab2 fragments of select anti-GPNMB antibodies of the present disclosure were produced through transient transfection and purified. Briefly, 2 ug/mL soluble mouse or human GPNMB-Fc diluted in binding buffer was pre-complexed with increasing concentrations of anti-GPNMB Fab2 fragments in 96-well plates. Subsequently, 100,000 SVEC4-10 cells were added per well and incubated on ice for 30 minutes. Soluble moGPNMB-Fc or huGPNMB-Fc bound to cell surface was detected with fluorescent anti-human IgG1 secondary antibody and measured on FACSCanto. IC50 and EC50 values based on changes in MFI values were calculated for each antibody.

[3] = target: B1; assay: FACS, Fab2 enhancing moGPNMB-Fc binding to SVEC4-10 cells
Protocol: as §1

[4] = target: B1; assay: FACS ligand binding assay: 2 ug/mL moGPNMB-Fc pre-complexed with rising Fab2, then SVEC4-10 cells; blocked ligand: unidentified ligand(s) on SVEC4-10 cells; bound GPNMB-Fc detected with anti-human IgG1 secondary
Protocol: as §1

[5] = target: T1, soluble human GPNMB-Fc polypeptide; assay: FACS, Fab2 blocking huGPNMB-Fc binding to SVEC4-10 cells
Protocol: as §1

[6] = target: B1; assay: FACS, Fab2 blocking moGPNMB-Fc binding to SVEC4-10 cells
Protocol: as §1

Binder	EC50 [2] [nM]	EC50 [3] [nM]	IC50 [5] [nM]	further results
B1	–	–	–	EC50 (read off the curve) [1]: ~0.1 µg/mL
recombinant Fab2 fragment of anti-GPNMB antibody GPN-65 (other, also called GPN-65 Fab2) VH: QLQLQQSGTEVVKPGASVKIPCKASGYAFSSYWMNWVKQRPGKGLEWIGQIYPGDGDTNDNGKFEGKATLTVDKSSNTAYIQLSSLTSEDSAVYFCARSPLHLRGSMDYWGQGTSVTVSS VL: SIVMTQTPKFLLVSAGDRVTITCKASQSVSNDVAWFQQKPGQSPELLIYSASNRYTGVPDRFTGSGYGTDFTFTISTVQAEDLAVYFCQQNYYSPFTFGGGTRLEIK	0.83	0.38	–	–
recombinant Fab2 fragment of anti-GPNMB antibody GPN-41 (other, also called GPN-41 Fab2) VH: QLQLQQSGTEVVKPGASVKIPCKASGYAFSSYWMNWVKQRPGKGLEWIGQIYPGDGDTNDNGKFEGKATLTVDKSSNTAYIQLSSLTSEDSAVYFCARSPLHLRGSMDYWGQGTSVTVSS VL: SIVMTQTPKFLLVSAGDRVTITCKASQSVSNDVAWFQQKPGQSPELLIYSASNRYTGVPDRFTASGYGTDFTFTISAVQAEDLAVYFCQQNYYSPFTFGGGTRLEIK	–	–	–	IC50 (read off the curve) [4]: ~4000 nM
recombinant Fab2 fragment of anti-GPNMB antibody GPN-35 (other, also called GPN-35 Fab2) VH: EVQLVESGGGSVRPGRSLKLSCAAAGFTFSDYYMTWVRQAPTKGLEWVASINHDGGGTYYRDSVKGRFTISRDNARSSLYLQMDSLRSEDTGTYYCTTRAGWHWGQGVMVTVSS VL: DIQMTQSPASLSASLGETVSIECLASEDIYNYLTWYQQKPGKSPQVLIYSASGLQDGVPSRFSGSGSGRQYSLKINGLESEDAATYFCLQDSEYPLTFGSGTKLEIK	–	–	5.08	IC50 [6]: 4.05 nM
recombinant Fab2 fragment of anti-GPNMB antibody GPN-37 (other, also called GPN-37 Fab2) VH: EVQLVESGGGLVQPGRSLKLSCAASGFTFSSKSGMAWVRQAPTKGLEWVASISNGGGDTYYRDSVKGRFTISRDNAKNTQYLQMDSLRPEDTATYYCARHRDYGYDAYFDYWGQGVMVTVSS VL: DIQMTQSPASLSASLGETVTIECLASEDIYSSLAWYQQKPGKSPQLLIYDASSLQDGVPSRFSGSESGTQYSLEINSLQSEDAATYFCQQHHDYPYTFGAGTKLELK	–	–	9.49	–
recombinant Fab2 fragment of anti-GPNMB antibody GPN-38 (other, also called GPN-38 Fab2) VH: QVQLQQPGAELVRPGTSVRLSCKASGYTFTSYWIHWVKQRPGRGLEWIGVIDPSDSYTNYNQQFNVKATLTVDTSSSAAYMQLSSLTSEDSAVYYCARGLITAVNWYFDVWGTGTTVTVSS VL: DIQMTQSPASLSTSVGEIVTITCRASENIYSYLTWYQQKQGKSPQLLVYNAKTLAEGVPSRFSGSGSGTQFSLKINSLQPEDFGTYYCQHHYGTPLTFGSGTKLEIK	2.15	5.83	–	–
